{
  "source": "paper PMC12122940",
  "target": "H3 1–19 peptide",
  "data": [
    {"substance": "PRDM9 (195–415) (from UniProt Q9NQV7 195-415) (enzyme)", "values": [
      {"measurement": "methylation of the soluble peptide (2.5 µM peptide, 50 nM enzyme, radioactively labeled AdoMet, autoradiography); ratio of the initial methylation rates H3K4/H3K36 (fold (against the H3K36 26-44 peptide))", "result": 5.2}
    ]}
  ]
}
